Reference: patent publication US20120040894A1 (REGENTS OF THE UNIVERSITY OF CALIFONIRA, published 2012)
Numbered stars: 1 amine (or outer) side, 2 acyl side, 3 side chain; on linkers, the order of the positions; unused ones are H or OH. Square brackets hold non-standard residues; d marks the D form. Ends that are not written are not given here. Cys(S-tBut) = S-t-butylthio-L-cysteine, CC(C)(C)SSC[C@H](N[*:1])C(=O)[*:2]; Cys(tBut) = S-t-butyl-L-cysteine, CC(C)(C)SC[C@H](N[*:1])C(=O)[*:2]

B1: Hep25 (peptide)
peptide: DTHFPICIFCCGCCHRSKCGMCCKT
modifications: disulfide (positions not given here); also: 4 disulfide bonds, pairing not given here
B2: Cyc-3 (peptide)
peptide: HFPICIF
modifications: not fully specified; C-terminal F carries R1 = -CONH2-CH2-CH2-S; disulfide cyclized (double underlining lost)
B3: Pr23 (peptide)
peptide: FICIPFHTD
modifications: N-terminal R2 = Chenodeoxycholate-(PEG11)-; retroinverted (D-amino acids); C-terminal amide
B4: Pr24 (peptide)
peptide: FICIPFHTD
modifications: N-terminal R3 = Ursodeoxycholate-(PEG11)-; retroinverted (D-amino acids); C-terminal amide
B5: Pr27 (peptide)
peptide: FICIPFHTD
modifications: N-terminal R4 = Palmitoyl-(PEG11)-; retroinverted (D-amino acids); C-terminal amide
B6: riHep7ΔDT (peptide)
peptide: [dF][dI][dC][dI][dP][dF][dH]-NH2
modifications: N-terminus assumed
SMILES: CC[C@@H](C)[C@@H](NC(=O)[C@H](N)Cc1ccccc1)C(=O)N[C@H](CS)C(=O)N[C@@H](C(=O)N1CCC[C@@H]1C(=O)N[C@H](Cc1ccccc1)C(=O)N[C@H](Cc1c[nH]cn1)C(N)=O)[C@H](C)CC
B7: Hep9C7-tBut (peptide)
peptide: DTHAPI[Cys(tBut)]IF-NH2
modifications: N-terminus assumed
SMILES: CC[C@H](C)[C@H](NC(=O)[C@H](CSC(C)(C)C)NC(=O)[C@@H](NC(=O)[C@@H]1CCCN1C(=O)[C@H](C)NC(=O)[C@H](Cc1c[nH]cn1)NC(=O)[C@@H](NC(=O)[C@@H](N)CC(=O)O)[C@@H](C)O)[C@@H](C)CC)C(=O)N[C@@H](Cc1ccccc1)C(N)=O
B8: Pr28 (peptide)
peptide: FICIPFHTD
modifications: not fully specified; N-terminal R5 = 2(Palmitoyl)-Dap(PEG11)-, Dap = diaminopropionic acid; retroinverted (D-amino acids); C-terminal amide
B9: Hep9C7-SStBut (peptide)
peptide: DTHAPI[Cys(S-tBut)]IF-NH2
modifications: N-terminus assumed
SMILES: CC[C@H](C)[C@H](NC(=O)[C@H](CSSC(C)(C)C)NC(=O)[C@@H](NC(=O)[C@@H]1CCCN1C(=O)[C@H](C)NC(=O)[C@H](Cc1c[nH]cn1)NC(=O)[C@@H](NC(=O)[C@@H](N)CC(=O)O)[C@@H](C)O)[C@@H](C)CC)C(=O)N[C@@H](Cc1ccccc1)C(N)=O

The binders below were run against T1, ferroportin tagged at the C-terminus with green fluorescent protein (ECR293/Fpn-GFP cells) (assay: cell-based or functional assay).
T1 sequence (Q9NP59 whole entry, species assumed, looked up): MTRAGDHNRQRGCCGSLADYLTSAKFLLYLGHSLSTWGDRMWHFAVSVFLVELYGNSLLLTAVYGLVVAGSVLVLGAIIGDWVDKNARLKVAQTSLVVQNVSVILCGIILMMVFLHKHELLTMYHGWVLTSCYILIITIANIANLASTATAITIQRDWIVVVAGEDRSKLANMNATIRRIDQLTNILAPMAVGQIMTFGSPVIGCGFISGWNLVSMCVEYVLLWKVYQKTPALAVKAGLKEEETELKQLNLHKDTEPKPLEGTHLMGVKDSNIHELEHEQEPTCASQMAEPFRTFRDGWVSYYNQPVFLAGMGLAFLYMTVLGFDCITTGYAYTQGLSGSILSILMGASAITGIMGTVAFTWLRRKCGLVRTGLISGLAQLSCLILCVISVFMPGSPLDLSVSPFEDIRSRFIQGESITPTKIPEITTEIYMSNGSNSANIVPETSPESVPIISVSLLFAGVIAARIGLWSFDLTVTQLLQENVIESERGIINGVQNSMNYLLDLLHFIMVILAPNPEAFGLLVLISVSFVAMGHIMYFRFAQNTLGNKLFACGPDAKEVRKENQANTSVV

| Binder | EC50 (nM); loss of fluorescence of Fpn-GFP cells, flow cytometry [nM] |
| --- | --- |
| DTHFPICI-NH2 [Hep8 (Hep1-8)] | 2000 |
| B1 | 10 |
| B2 | > 10000 |
| B3 | 100 |
| DTHFPISIF-NH2 [Hep9-C7S] | > 10000 |
| B4 | 1000 |
| DTHFPIAIFC-NH2 [Hep10 (Hep1-10 C7A)] | 100 |
| DTHFPIC-NH2 [Hep7 (Hep1-7)] | > 10000 |
| FICIPFHTD (retroinverted: all D-amino acids; C-terminal amide) [Pr12] | 900 |
| B5 | 20 |
| FPIC-NH2 [Hep4 (Hep4-7)] | > 10000 |
| B6 | 150 |
| HFPICIF-NH2 [Hep7ΔDT (Hep3-9)] | 700 |
| B7 | > 10000 |
| DTHAPICIF-NH2 [Hep9F4A] | > 3000 |
| DTHFPIAIF-NH2 [Hep9-C7A] | > 10000 |
| HFPICI-NH2 [Hep6 (Hep3-8)] | 1000 |
| B8 | 3000 |
| HFPIC-NH2 [Hep5 (Hep3-7)] | > 10000 |
| B9 | 700 |

Molecular target: T1, ferroportin tagged at the C-terminus …
Assay: cell-based or functional assay
Remark: another data set of the same source

| Binder | EC50; loss of fluorescence of Fpn-GFP cells [nM] |
| --- | --- |
| B1 | 5 to 15 |
